# Literature values as cited in US20140213990A1, “COMPOSITIONS AND METHODS FOR TREATING SURFACE WOUNDS” (priority 2013, published 2014).
# Tests used:
# [1] = Phase III clinical trials
# diabetic foot ulcers = settings: at 20 weeks of treatment
substance,measurement,setting,value
Becaplermin,patients in whom cancer appeared,[1],80%
same,closure (healing) rate for diabetic foot ulcers,diabetic foot ulcers,44%
